Assay results published in patent US20220280659A1, “Targeted Nanoparticles of Well-Defined and Reproducible Sizes” (STAMS DIAGNOSTICS GMBH, priority 2019, published 2022).

Assay: Zeta Potential (surface charge) by electrophoretic mobility / PCS, PSS NICOMP 380 DLS/ZLS
Format: physicochemical
Details: FIG. 5; pH 7
Procedure: The surface charge (also referred to as Zeta potential) of the nanoparticles was determined by measuring their electrophoretic mobility using a PSS NICOMP™ 380 DLS/ZLS. Measurements were made at particle concentrations of 6 to 15 mg/ml, temperatures between room temperature to 50° C., and applying an external voltage of 5 Volts.
The surface charge (also referred to as Zeta potential or ζ-potential) may be measured using Zeta Sizer as e.g. PSS NICOMP™ 380 DLS/ZLS. Zeta Charge, or Net Surface Charge of a molecule or a particle is measured by PCS in the presence of an applied electrical field.

With “human serum albumin [cleaned and stabilized albumin molecules]” the “global surface charge, PCS based measurement of the Zeta Potential” value was “about −5 mV”.
